These results are taken from publication doi:10.1101/2025.05.28.656462 (bioRxiv, 2025).

This data set concerns the molecule itself. Nature of the data set: SEC.

B1: full-length Pseudomonas aeruginosa bacteriophytochrome PaBphP, wild type (FL-PaBphP-D) (natural protein)
chain: MTSITPVTLANCEDEPIHVPGAIQPHGALVTLRADGMVLAASENIQALLGFVASPGSYLTQEQVGPEVLRMLEEGLTGNGPWSNSVETRIGEHLFDVIGHSYKEVFYLEFEIRTADTLSITSFTLNAQRIIAQVQLHNDTASLLSNVTDELRRMTGYDRVMAYRFRHDDSGEVVAESRREDLESYLGQRYPASDIPAQARRLYIQNPIRLIADVAYTPMRVFPALNPETNESFDLSYSVLRSVSPIHCEYLTNMGVRASMSISIVVGGKLWGLFSCHHMSPKLIPYPVRMSFQIFSQVCSAIVERLEQGRIAELLRVSTERRLALARRARDADDLFGALAHPDDGIAALIPCDGALVMLGGRTLSIRGDFERQAGNVLQRLQRDPERDIYHTDNWPQPSEDSPDGGDCCGVLAIRFHRQESGWIFWFRHEEVHRIRWGGKPEKLLTIGPSGPRLTPRGSFEAWEEVVRGHSTPWSETDLAIAEKLRLDLMELCLNHAAEVDRMRQRLIAVLGHDLRNPLQSISMAAALLSSSDTRTTELRQHISASSSRMERLVSQILDMSRLQSGIGLTVNPVDTDVSQLVRQIVCETDVAYPGLVIEIAIDPQVRAVVDPDRYAQVAANLLSNARHHGLPGRPVLVTLTRQGDEVCLSVLNETSGLSEAQLANLFEPFKRESADNQRNRNGLGIGLYISQAIAQAHQGRIDVDCRDDVITFCLRLPVRQAETGSSS
Regarding B1, the stoichiometry N (in general, the number of molecules, sites or subunits per partner or assembly) amounted to 2.
